According to PMC5429807, “Glucose uptake in Azotobacter vinelandii occurs through a GluP transporter that is under the control of the CbrA/CbrB and Hfq-Crc systems”:

Key:
Hfq-His;Crc [1] = molecular target: T1, Hfq-His;Crc (Azotobacter vinelandii …, UniProt C1DLQ2;C1DI50 1-84;1-259, |); test: EMSA; control RNA; stable complex not observed; RNA EMSA as in a cited protocol (ref. 13), excess tRNA, non-denaturing polyacrylamide gel; buffer, salt, pH and temperature not given in the material; settings: protein: recombinant;recombinant; tags: C-terminal His6;none (intein removed); chain copies: 6;1; single strand
T1 sequence (C1DLQ2 whole entry, one chain of several): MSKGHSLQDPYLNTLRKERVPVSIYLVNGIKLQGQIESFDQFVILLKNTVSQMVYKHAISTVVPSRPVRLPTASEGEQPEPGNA

Crc = molecular target: T2, Crc (Azotobacter vinelandii AEIV, UniProt C1DI50 1-259); test: EMSA; Crc alone; RNA EMSA as in a cited protocol (ref. 13), excess tRNA, non-denaturing polyacrylamide gel; buffer, salt, pH and temperature not given in the material; settings: protein: recombinant; tags: none (intein removed); label: 5'-32P; single strand
T2 sequence: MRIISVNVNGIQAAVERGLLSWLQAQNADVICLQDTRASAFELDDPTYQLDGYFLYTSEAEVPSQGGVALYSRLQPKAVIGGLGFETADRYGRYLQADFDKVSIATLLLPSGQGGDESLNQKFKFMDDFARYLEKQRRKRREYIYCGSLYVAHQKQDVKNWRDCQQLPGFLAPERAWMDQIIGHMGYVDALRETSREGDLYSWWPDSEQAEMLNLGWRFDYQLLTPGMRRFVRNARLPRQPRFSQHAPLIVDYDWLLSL

Hfq-His (P. putida) = molecular target: T3, Hfq-His (P. putida) (Pseudomonas putida, UniProt Q88DD3 1-86); test: EMSA; Hfq alone, at the tested concentrations; RNA EMSA as in a cited protocol (ref. 13), excess tRNA, non-denaturing polyacrylamide gel; buffer, salt, pH and temperature not given in the material; settings: protein: recombinant; tags: His; chain copies: 6; label: 5'-32P; single strand
T3 sequence: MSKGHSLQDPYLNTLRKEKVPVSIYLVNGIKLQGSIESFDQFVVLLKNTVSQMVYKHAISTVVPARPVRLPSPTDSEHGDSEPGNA

Hfq-His;Crc [2] = molecular target: T1, Hfq-His;Crc; test: EMSA; about equimolar Hfq hexamer and Crc needed; RNA EMSA as in a cited protocol (ref. 13), excess tRNA, non-denaturing polyacrylamide gel; buffer, salt, pH and temperature not given in the material; settings: protein: recombinant;recombinant; tags: C-terminal His6;none (intein removed); chain copies: 6;1; label: 5'-32P; single strand

B1: DmpR 6C control RNA (ssRNA)
RNA: UUCCCCAUCUCCCCAUCCAUAGGGGC
B1: no binding (Hfq-His;Crc [1]).

B2: gluP A-rich RNA oligo (ssRNA)
RNA: AAGCAACAAUCACAACAAGAGGAAAU
B2: no binding (Crc); no binding (Hfq-His (P. putida)); binds (Hfq-His;Crc [2]).
